This is an account of results in publication PMC13627713.

The target of the data set is Smc5/6 hexamer (wild type) (Saccharomyces cerevisiae W303, UniProt Q08204;Q12749;Q07913;P38632;Q05541;P43124 1-1093;1-1114;1-336;1-267;1-303;1-402). Put plainly: EMSA.

B1: DB20 20-bp DNA (dsDNA)
DNA 1: TATTTACTTTATGTTCATTT
DNA 2: AAATGAACATAAAGTAAATA
Take B1: the binding result is given as “binds”.
